Measurements taken from US20040266662A1, “Spheroidal hdl particles with a defined phospholipid composition” (priority 2001, published 2004).

Assay: Unfolding of apoA-I by guanidine hydrochloride
Type: physicochemical
Protocol: FIG. 4. Unfolding of apoA-I in spherical (POPC)rHDL, (PLPC)rHDL, (PAPC)rHDL and (PDPC)rHDL. (POPC)rHDL, (PLPC)rHDL, (PAPC)rHDL, (PDPC)rHDL and lipid-free apoA-I were incubated with 0-8 M GdnHCl for 0 (◯), 5 ( ), and 24 (●) h. Values represent the mean of at least three determinations. Experimental errors for the wavelength of maximum fluorescence are ±1.0 nm.
FIG. 5. Kinetics of the unfolding of apoA-I in spherical (POPC)rHDL, (PLPC)rHDL, (PAPC)rHDL and (PDPC)rHDL. Spherical (POPC)rHDL ( ), (PLPC)rHDL ( ), (PAPC)rHDL (●), (PDPC)rHDL ( ) and lipid-free apoA-I (◯) were incubated with 3.5 M GdnHCl for 0-24 h. The wavelengths of maximum fluorescence represent the mean±sd of triplicate determinations.
The unfolding of apoA-I was determined by incubating the rHDL preparations at 25° C. for 0-24 h in the presence of 0-8.0 M guanidine hydrochloride (11).

Question: With “lipid-free apoA-I: Apolipoprotein A-I purified from delipidated HDL of pooled human plasma, used as lipid-free comparator” as the substance, how does the “rate of unfolding of apoA-I” value (3.5 M GdnHCl, 0-24 h) read?
Answer: unfolded rapidly and completely

Question: What about the “concentration of GdnHCl required to achieve 50% unfolding of apoA-I” value (25° C.) of the same substance?
Answer: 1.0 M
